Experimental data published in the supplement of paper PMC9112550, “Optimization of the antimicrobial peptide Bac7 by deep mutational scanning” (BMC Biology, 2022).

tested on: Escherichia coli TOP10; test: shrunken log2 fold change of peptide-encoding DNA abundance (4.5 h post-induction vs induction); higher = less antimicrobial activity (less host growth inhibition); conditions: time post-induction: 4.5 h; library: site-saturation at positions 5, 18, 19, 20
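Further: peptides expressed intracellularly from a pBAD plasmid library in pooled LB shake-flask culture, induced with 0.3% L-arabinose, DNA abundance read by NGS, three biological replicates, DESeq2 with apeglm shrinkage.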

In order of falling “shrunken log2 fold change” value:
1. RRIRGRPPRLPRPRPRPGVEPRP  1.46
2. RRIRKRPPRLPRPRPRPKPAPRP  1.11
3. RRIRQRPPRLPRPRPRPLAPPRP  0.38
4. RRIRERPPRLPRPRPRPPRSPRP  0.375
5. RRIRARPPRLPRPRPRPKCTPRP  0.316
6. RRIRARPPRLPRPRPRPAFTPRP  0.315
7. RRIRARPPRLPRPRPRPEIFPRP  0.273
8. RRIRTRPPRLPRPRPRPPGHPRP  0.245
9. RRIRVRPPRLPRPRPRPLHCPRP  0.238
10. RRIRVRPPRLPRPRPRPRLGPRP  0.223
11. RRIRKRPPRLPRPRPRPTKWPRP  0.172
12. RRIRLRPPRLPRPRPRPGLAPRP  0.164
13. RRIRIRPPRLPRPRPRPDAGPRP  0.158
14. RRIRCRPPRLPRPRPRPIPQPRP  0.153
15. RRIRSRPPRLPRPRPRPRLHPRP  0.15
16. RRIRMRPPRLPRPRPRPLKMPRP  0.146
17. RRIRCRPPRLPRPRPRPGLPPRP  0.143
18. RRIRWRPPRLPRPRPRPPSKPRP  0.104
19. RRIRCRPPRLPRPRPRPSQDPRP  0.0757
20. RRIRRRPPRLPRPRPRPCYRPRP  0.0724
21. RRIRLRPPRLPRPRPRPVDSPRP  0.0702
22. RRIRFRPPRLPRPRPRPESEPRP  0.0687
23. RRIRNRPPRLPRPRPRPFFWPRP  0.0463
24. RRIRHRPPRLPRPRPRPFSPPRP  0.0457
25. RRIRRRPPRLPRPRPRPMQGPRP  0.031
26. RRIRYRPPRLPRPRPRPAARPRP  0.0304
27. RRIRMRPPRLPRPRPRPWLIPRP  0.0295
28. RRIRPRPPRLPRPRPRPPHLPRP  0.024
29. RRIRDRPPRLPRPRPRPCCHPRP  0.0218
30. RRIRHRPPRLPRPRPRPHRVPRP  0.0179
31. RRIRSRPPRLPRPRPRPDDLPRP  0.0166
32. RRIRRRPPRLPRPRPRPQKAPRP  0.0122
33. RRIRSRPPRLPRPRPRPVMHPRP  0.00492
34. RRIRTRPPRLPRPRPRPASVPRP  0.00118
35. RRIRERPPRLPRPRPRPFTVPRP  -0.00987
36. RRIRDRPPRLPRPRPRPSQPPRP  -0.0206
37. RRIRPRPPRLPRPRPRPDRYPRP  -0.0207
38. RRIRNRPPRLPRPRPRPNFCPRP  -0.0258
39. RRIRPRPPRLPRPRPRPDKEPRP  -0.0375
40. RRIRFRPPRLPRPRPRPNVVPRP  -0.046
41. RRIRTRPPRLPRPRPRPFMGPRP  -0.0574
42. RRIRDRPPRLPRPRPRPESFPRP  -0.0579
43. RRIRVRPPRLPRPRPRPDPCPRP  -0.0596
44. RRIRWRPPRLPRPRPRPPEIPRP  -0.0659
45. RRIRQRPPRLPRPRPRPKWDPRP  -0.0672
46. RRIRQRPPRLPRPRPRPVFVPRP  -0.0727
47. RRIRFRPPRLPRPRPRPCNSPRP  -0.0848
48. RRIRTRPPRLPRPRPRPMEFPRP  -0.0956
49. RRIRFRPPRLPRPRPRPIFRPRP  -0.0966
50. RRIRIRPPRLPRPRPRPENIPRP  -0.106
51. RRIRWRPPRLPRPRPRPHYLPRP  -0.106
52. RRIRRRPPRLPRPRPRPSIDPRP  -0.107
53. RRIRHRPPRLPRPRPRPESKPRP  -0.135
54. RRIRLRPPRLPRPRPRPVNQPRP  -0.138
55. RRIRARPPRLPRPRPRPCNGPRP  -0.139
56. RRIRNRPPRLPRPRPRPHEHPRP  -0.155
57. RRIRSRPPRLPRPRPRPIDKPRP  -0.156
58. RRIRHRPPRLPRPRPRPRMNPRP  -0.197
59. RRIRCRPPRLPRPRPRPRFYPRP  -0.234
60. RRIRVRPPRLPRPRPRPVNTPRP  -0.236
61. RRIRLRPPRLPRPRPRPGVIPRP  -0.298
62. RRIRIRPPRLPRPRPRPTAHPRP  -0.313
63. RRIRCRPPRLPRPRPRPHLKPRP  -0.322
64. RRIRCRPPRLPRPRPRPIFKPRP  -0.323
65. RRIRERPPRLPRPRPRPKPFPRP  -0.37
66. RRIRMRPPRLPRPRPRPQHCPRP  -0.458
67. RRIRWRPPRLPRPRPRPFLIPRP  -0.488
68. RRIRDRPPRLPRPRPRPYWQPRP  -0.548
69. RRIRCRPPRLPRPRPRPWGIPRP  -0.59
70. RRIRFRPPRLPRPRPRPQYTPRP  -0.616
71. RRIRQRPPRLPRPRPRPFNLPRP  -0.649
72. RRIRIRPPRLPRPRPRPLYSPRP  -0.674
73. RRIRCRPPRLPRPRPRPYQWPRP  -0.714
74. RRIRYRPPRLPRPRPRPLCMPRP  -0.795
75. RRIRHRPPRLPRPRPRPCIPPRP  -0.809
